From patent publication US12291504B2, “Small molecule inhibition of sulfotransferase SULT1A3” (University of Pittsburgh—Of the Commonwealth System of …, priority 2018, dated 2025)

Substrate: Oc1ccc2ccc3cccc4ccc1c2c34
Assay: SULT1A3 inhibition studies, 1-HP initial-rate fluorescence assay
Type: biochemical, human
Settings: other: WT enzyme; saturating PAPS (500 μM, 17 × Km); pH 7.5; 25.0 °C
Description: The initial rates of SULT catalyzed 1-HP sulfonation are plotted as a function of inhibitor concentration, and are normalized relative to [inhibitor]=0. Enzyme activity was monitored by the sulfonation dependent change in 1-HP fluorescence (λex=325 nm, λem=370 nm). Less than 5% of the concentration-limiting substrate converted at the reaction endpoint was consumed during initial-rate measurements. Each point is the average of three independent determinations. Conditions: SULT (20 nM, active sites), PAPS (0.50 mM, 17×Km), 1-HP (5.0 μM, 61×Km), KPO4 (50 mM), pH 7.5, 25±2° C.
(§1) Initial-Rate Studies. Initial-rate parameters for the labeled or mutant SULT1A3 constructs were determined using a previously described 1-HP assay (25). […] Reactions were monitored via fluorescence change associated with the conversion of 1-HP to 1-HP-S (λex=325 nm, λem=370 nm). […] Reaction progress curves were analyzed to obtain initial-rate parameters as described previously (26,27). […]
as §1, with “(47).” for “(25).”, “(48,49).” for “(26,27).”

B1: SULT1A3 (Homo sapiens) (protein)
chain: MELIQDTSRPPLEYVKGVPLIKYFAEALGPLQSFQARPDDLLINTYPKSGTTWVSQILDMIYQGGDLEKCNRAPIYVRVPFLEVNDPGEPSGLETLKDTPPPRLIKSHLPLALLPQTLLDQKVKVVYVARNPKDVAVSYYHFHRMEKAHPEPGTWDSFLEKFMAGEVSYGSWYQHVQEWWELSRTHPVLYLFYEDMKENPKREIQKILEFVGRSLPEETMDFMVQHTSFKEMKKNPMTNYTTVPQELMDHSISPFMRKGMAGDWKTTFTVAQNERFDADYAEKMAGCSLSFRSEL
notes: Wild-type and mutant SULT1A3 coding regions were inserted into a pGEX-6P expression vector; N-His/GST/MBP triple-tag (N, cleaved yes); made in house; host or cells: E. coli BL21(DE3)
Km: 82 (3) nM | kcat: 2 s⁻¹
